In PMC8595662:

Columns and labels:
AMMO1 (human) = test: SPR
[1] = biological target: AMMO1, human gH/gL-specific neutralizing antibody (recombinant IgG1) (human); test: SPR
Sequence of AMMO1, human gH/gL-specific neutralizing antibody (recombinant IgG1) (human) (heavy, as listed by the source, chain 1 of 2): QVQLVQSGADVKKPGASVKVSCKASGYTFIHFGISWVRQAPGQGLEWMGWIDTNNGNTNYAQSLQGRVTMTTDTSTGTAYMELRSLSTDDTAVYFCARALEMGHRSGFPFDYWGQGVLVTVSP
Sequence of AMMO1, human gH/gL-specific neutralizing antibody (recombinant IgG1) (human) (light, as listed by the source, chain 2 of 2): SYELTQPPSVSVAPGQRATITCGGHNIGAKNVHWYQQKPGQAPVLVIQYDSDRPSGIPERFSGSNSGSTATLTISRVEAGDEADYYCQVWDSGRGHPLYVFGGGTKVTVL

Sequence of AMMO1 (human) (heavy, as listed by the source, chain 1 of 2): as the sequence (heavy, as listed by the source, chain 1 of 2) above
Sequence of AMMO1 (human) (light, as listed by the source, chain 2 of 2): as the sequence (light, as listed by the source, chain 2 of 2) above

| Substance | koff (AMMO1 (human)) | Kd [1] |
| --- | --- | --- |
| gH N310A/gL (from UniProt P03231;P03212) (complex) | 9.6e-05 s⁻¹ |  |
| EBV gH/gL single chain with N310A in gH (from UniProt P03231;P03212) (complex) |  | 0.19 nM |
